The target of assay [1] is CD38 naturally expressed on Daudi cells (human, UniProt P28907 1-300). Description: FACS; FIG. 24.
For assay [2], the target named is T1, CD33 naturally expressed on HL60 cells (human, UniProt P20138 18-364). Description: FACS. (Flow cytometry measures light scatter and fluorescence of single cells or particles in a stream.)
Assay [3] concerns the target T1, CD33 naturally expressed on HL60 cells. The assay can be described thus: FACS. The source holds these as a separate data set.

Read-outs that look alike come from different tables or passages of the source.

As a reminder, the EC50 is the concentration that produces a half-maximal response. Lower therefore signals an effect from little substance.

T1 sequence (P20138 18-364): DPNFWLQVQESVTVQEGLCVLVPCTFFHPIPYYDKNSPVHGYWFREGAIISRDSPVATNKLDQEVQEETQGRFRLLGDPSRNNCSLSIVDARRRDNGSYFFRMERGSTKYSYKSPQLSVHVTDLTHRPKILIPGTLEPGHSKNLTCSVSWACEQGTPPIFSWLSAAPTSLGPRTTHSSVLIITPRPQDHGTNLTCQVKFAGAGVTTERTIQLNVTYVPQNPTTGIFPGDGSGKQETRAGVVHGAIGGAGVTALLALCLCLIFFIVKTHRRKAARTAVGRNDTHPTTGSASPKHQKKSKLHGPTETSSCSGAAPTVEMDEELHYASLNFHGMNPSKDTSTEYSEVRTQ

B1: QP43354336 (antibody, V domains shown)
VH: QVQLVQSGAEVKKPGESLKVSCKASGYTFTSYYMHWVRQAPGQGLEWMGIINPSGGSTSYAQKFQGRVTMTRDTSTSTVYMELSSLRSEDTAVYYCARGSAYYYDFADYWGQGTLVTVSS
VL: MDMRVPAQLLGLLLLWFPGSRCSYVLTQPSSVSVAPGQTATISCGGHNIGSKNVHWYQQRPGQSPVLVIYQDNKRPSGIPERFSGSNSGNTATLTISGTQAMDEADYYCQVWDNYSVLFGGGTKLTVLR
On to B1, for which the EC50 in assay [1] is approximately 0.289 nM; in assay [2], 21.4 nM.

B2: CD33/CD16A/IL-15 trifunctional fusion protein QP42914285 (FC with L234A/L235A mutation for eliminating function) (bispecific antibody)
light: SYVLTQPSSVSVAPGQTATISCGGHNIGSKNVHWYQQRPGQSPVLVIYQDNKRPSGIPERFSGSNSGNTATLTISGTQAMDEADYYCQVWDNYSVLFGGGTKLTVLRTVAAPSVFIFPPSDEQLKSGTASVVCLLNNFYPREAKVQWKVDNALQSGNSQESVTEQDSKDSTYSLSSTLTLSKADYEKHKVYACEVTHQGLSSPVTKSFNRGEC
heavy: QVQLVQSGAEVKKPGESLKVSCKASGYTFTSYYMHWVRQAPGQGLEWMGIINPSGGSTSYAQKFQGRVTMTRDTSTSTVYMELSSLRSEDTAVYYCARGSAYYYDFADYWGQGTLVTVSSASTKGPSVFPLAPSSKSTSGGTAALGCLVKDYFPEPVTVSWNSGALTSGVHTFPAVLQSSGLYSLSSVVTVPSSSLGTQTYICNVNHKPSNTKVDKKVEPKSCDKTHTCPPCPAPEAAGGPSVFLFPPKPKDTLMISRTPEVTCVVVDVSHEDPEVKFNWYVDGVEVHNAKTKPREEQYNSTYRVVSVLTVLHQDWLNGKEYKCKVSNKALPAPIEKTISKAKGQPREPQVYTLPPSREEMTKNQVSLSCAVKGFYPSDIAVEWESNGQPENNYKTTPPVLDSDGSFFLVSKLTVDKSRWQQGNVFSCSVMHEALHNRYTQKSLSLSPGKGGSHHHHHH
chain 1: not shown
chain 2: not shown
As for B2, the figures for the EC50 in assay [3] and in assay [2] were 3.08 nM and 4.51 nM, respectively.

B3: QP42714274 (antibody)
chain 1: not shown
chain 2: EVQLLESGGGLVQPGGSLRLSCAVSGFTFNSFAMSWVRQAPGKGLEWVSAISGSGGGTYYADSVKGRFTISRDNSKNTLYLQMNSLRAEDTAVYFCAKDKILWFGEPVFDYWGQGTLVTVSSASTKGPSVFPLAPSSKSTSGGTAALGCLVKDYFPEPVTVSWNSGALTSGVHTFPAVLQSSGLYSLSSVVTVPSSSLGTQTYICNVNHKPSNTKVDKKVEPKSCDKTHTCPPCPAPEAAGGPSVFLFPPKPKDTLMISRTPEVTCVVVDVSHEDPEVKFNWYVDGVEVHNAKTKPREEQYNSTYRVVSVLTVLHQDWLNGKEYKCKVSNKALPAPIEKTISKAKGQPREPQVYTLPPSREEMTKNQVSLSCAVKGFYPSDIAVEWESNGQPENNYKTTPPVLDSDGSFFLVSKLTVDKSRWQQGNVFSCSVMHEALHNRYTQKSLSLSPGKGGSHHHHHH
chain 3: not shown
chain 4: not shown
B3 returned an EC50 in assay [1] of 4.76 nM.

B4: QP34483449 (antibody, V domains shown)
VH: EVQLVESGGGLVQPGGSLRLSCAASGFDFSRYWMSWVRQAPGKGLEWIGEINPDSSTINYAPSLKDKFIISRDNAKNSLYLQMNSLRAEDTAVYYCARPDGNYWYFDVWGQGTLVTVSS
VL: MDMRVPAQLLGLLLLWFPGSRCDIQMTQSPSSLSASVGDRVTITCKASQDVGIAVAWYQQKPGKVPKLLIYWASTRHTGVPDRFSGSGSGTDFTLTISSLQPEDVATYYCQQYSSYPYTFGQGTKVEIKR
In assay [1], B4 gave an EC50 of 18.4 nM. Compared with the last molecule, the EC50 is about 3.9-fold higher.
